Reference: patent US6541450B1, “Parathyroid hormone analogues for the treatment of osteoporosis” (National Research Council of Canada, priority 1994, dated 2003)
Entries after “also recorded” stand apart in the source; their conditions may differ. Where a SMILES comes first, the peptide text is derived from it. Bridges are numbered along the chain shown (N, C = ends). Where no end group is shown, it is not given here. [ ]: non-standard residue; d: D form. Nle = CCCC[C@H](N)C(=O)O

B1: [Nle^27]cyclo(Glu^22-Lys^26)-hPTH-(1-31)-NH2 (peptide)
peptide: SVSEIQLMHNLGKHLNSMERVEWLRK[Nle]LQDV-NH2
modifications: lactam 22-26; N-terminus assumed
SMILES: CCCC[C@H](NC(=O)[C@@H]1CCCCNC(=O)CC[C@H](NC(=O)[C@@H](NC(=O)[C@H](CCCNC(=N)N)NC(=O)[C@H](CCC(=O)O)NC(=O)[C@H](CCSC)NC(=O)[C@H](CO)NC(=O)[C@H](CC(N)=O)NC(=O)[C@H](CC(C)C)NC(=O)[C@H](Cc2c[nH]cn2)NC(=O)[C@H](CCCCN)NC(=O)CNC(=O)[C@H](CC(C)C)NC(=O)[C@H](CC(N)=O)NC(=O)[C@H](Cc2c[nH]cn2)NC(=O)[C@H](CCSC)NC(=O)[C@H](CC(C)C)NC(=O)[C@H](CCC(N)=O)NC(=O)[C@@H](NC(=O)[C@H](CCC(=O)O)NC(=O)[C@H](CO)NC(=O)[C@@H](NC(=O)[C@@H](N)CO)C(C)C)[C@@H](C)CC)C(C)C)C(=O)N[C@@H](Cc2c[nH]c3ccccc23)C(=O)N[C@@H](CC(C)C)C(=O)N[C@@H](CCCNC(=N)N)C(=O)N1)C(=O)N[C@@H](CC(C)C)C(=O)N[C@@H](CCC(N)=O)C(=O)N[C@@H](CC(=O)O)C(=O)N[C@H](C(N)=O)C(C)C
B2: [Ala^27]cyclo(Glu^22-Lys^26)-hPTH-(1-31)-NH2 (peptide)
peptide: SVSEIQLMHNLGKHLNSMERVEWLRKALQDV-NH2
modifications: lactam 22-26; N-terminus assumed
SMILES: CC[C@H](C)[C@H](NC(=O)[C@H](CCC(=O)O)NC(=O)[C@H](CO)NC(=O)[C@@H](NC(=O)[C@@H](N)CO)C(C)C)C(=O)N[C@@H](CCC(N)=O)C(=O)N[C@@H](CC(C)C)C(=O)N[C@@H](CCSC)C(=O)N[C@@H](Cc1c[nH]cn1)C(=O)N[C@@H](CC(N)=O)C(=O)N[C@@H](CC(C)C)C(=O)NCC(=O)N[C@@H](CCCCN)C(=O)N[C@@H](Cc1c[nH]cn1)C(=O)N[C@@H](CC(C)C)C(=O)N[C@@H](CC(N)=O)C(=O)N[C@@H](CO)C(=O)N[C@@H](CCSC)C(=O)N[C@@H](CCC(=O)O)C(=O)N[C@@H](CCCNC(=N)N)C(=O)N[C@H](C(=O)N[C@H]1CCC(=O)NCCCC[C@@H](C(=O)N[C@@H](C)C(=O)N[C@@H](CC(C)C)C(=O)N[C@@H](CCC(N)=O)C(=O)N[C@@H](CC(=O)O)C(=O)N[C@H](C(N)=O)C(C)C)NC(=O)[C@H](CCCNC(=N)N)NC(=O)[C@H](CC(C)C)NC(=O)[C@H](Cc2c[nH]c3ccccc23)NC1=O)C(C)C
B3: α-acetyl-[Leu^27]cyclo(Glu^22-Lys^26)-hPTH-(1-31)-NH2 (peptide)
peptide: Ac-SVSEIQLMHNLGKHLNSMERVEWLRKLLQDV-NH2
modifications: lactam 22-26
SMILES: CC[C@H](C)[C@H](NC(=O)[C@H](CCC(=O)O)NC(=O)[C@H](CO)NC(=O)[C@@H](NC(=O)[C@H](CO)NC(C)=O)C(C)C)C(=O)N[C@@H](CCC(N)=O)C(=O)N[C@@H](CC(C)C)C(=O)N[C@@H](CCSC)C(=O)N[C@@H](Cc1c[nH]cn1)C(=O)N[C@@H](CC(N)=O)C(=O)N[C@@H](CC(C)C)C(=O)NCC(=O)N[C@@H](CCCCN)C(=O)N[C@@H](Cc1c[nH]cn1)C(=O)N[C@@H](CC(C)C)C(=O)N[C@@H](CC(N)=O)C(=O)N[C@@H](CO)C(=O)N[C@@H](CCSC)C(=O)N[C@@H](CCC(=O)O)C(=O)N[C@@H](CCCNC(=N)N)C(=O)N[C@H](C(=O)N[C@H]1CCC(=O)NCCCC[C@@H](C(=O)N[C@@H](CC(C)C)C(=O)N[C@@H](CC(C)C)C(=O)N[C@@H](CCC(N)=O)C(=O)N[C@@H](CC(=O)O)C(=O)N[C@H](C(N)=O)C(C)C)NC(=O)[C@H](CCCNC(=N)N)NC(=O)[C@H](CC(C)C)NC(=O)[C@H](Cc2c[nH]c3ccccc23)NC1=O)C(C)C
B4: [Ile^27]cyclo(Glu^22-Lys^26)-hPTH-(1-31)-NH2 (peptide)
peptide: SVSEIQLMHNLGKHLNSMERVEWLRKILQDV-NH2
modifications: lactam 22-26; N-terminus assumed
SMILES: CC[C@H](C)[C@H](NC(=O)[C@@H]1CCCCNC(=O)CC[C@H](NC(=O)[C@@H](NC(=O)[C@H](CCCNC(=N)N)NC(=O)[C@H](CCC(=O)O)NC(=O)[C@H](CCSC)NC(=O)[C@H](CO)NC(=O)[C@H](CC(N)=O)NC(=O)[C@H](CC(C)C)NC(=O)[C@H](Cc2c[nH]cn2)NC(=O)[C@H](CCCCN)NC(=O)CNC(=O)[C@H](CC(C)C)NC(=O)[C@H](CC(N)=O)NC(=O)[C@H](Cc2c[nH]cn2)NC(=O)[C@H](CCSC)NC(=O)[C@H](CC(C)C)NC(=O)[C@H](CCC(N)=O)NC(=O)[C@@H](NC(=O)[C@H](CCC(=O)O)NC(=O)[C@H](CO)NC(=O)[C@@H](NC(=O)[C@@H](N)CO)C(C)C)[C@@H](C)CC)C(C)C)C(=O)N[C@@H](Cc2c[nH]c3ccccc23)C(=O)N[C@@H](CC(C)C)C(=O)N[C@@H](CCCNC(=N)N)C(=O)N1)C(=O)N[C@@H](CC(C)C)C(=O)N[C@@H](CCC(N)=O)C(=O)N[C@@H](CC(=O)O)C(=O)N[C@H](C(N)=O)C(C)C
B5: [Tyr^27]cyclo(Glu^22-Lys^26)-hPTH-(1-31)-NH2 (peptide)
peptide: SVSEIQLMHNLGKHLNSMERVEWLRKYLQDV-NH2
modifications: lactam 22-26; N-terminus assumed
SMILES: CC[C@H](C)[C@H](NC(=O)[C@H](CCC(=O)O)NC(=O)[C@H](CO)NC(=O)[C@@H](NC(=O)[C@@H](N)CO)C(C)C)C(=O)N[C@@H](CCC(N)=O)C(=O)N[C@@H](CC(C)C)C(=O)N[C@@H](CCSC)C(=O)N[C@@H](Cc1c[nH]cn1)C(=O)N[C@@H](CC(N)=O)C(=O)N[C@@H](CC(C)C)C(=O)NCC(=O)N[C@@H](CCCCN)C(=O)N[C@@H](Cc1c[nH]cn1)C(=O)N[C@@H](CC(C)C)C(=O)N[C@@H](CC(N)=O)C(=O)N[C@@H](CO)C(=O)N[C@@H](CCSC)C(=O)N[C@@H](CCC(=O)O)C(=O)N[C@@H](CCCNC(=N)N)C(=O)N[C@H](C(=O)N[C@H]1CCC(=O)NCCCC[C@@H](C(=O)N[C@@H](Cc2ccc(O)cc2)C(=O)N[C@@H](CC(C)C)C(=O)N[C@@H](CCC(N)=O)C(=O)N[C@@H](CC(=O)O)C(=O)N[C@H](C(N)=O)C(C)C)NC(=O)[C@H](CCCNC(=N)N)NC(=O)[C@H](CC(C)C)NC(=O)[C@H](Cc2c[nH]c3ccccc23)NC1=O)C(C)C
B6: [Nle^8,18, Leu^27]cyclo(Glu^22-Lys^26)-hPTH-(1-31)-NH2 (peptide)
peptide: SVSEIQL[Nle]HNLGKHLNS[Nle]ERVEWLRKLLQDV-NH2
modifications: lactam 22-26; N-terminus assumed
SMILES: CCCC[C@H](NC(=O)[C@H](CO)NC(=O)[C@H](CC(N)=O)NC(=O)[C@H](CC(C)C)NC(=O)[C@H](Cc1c[nH]cn1)NC(=O)[C@H](CCCCN)NC(=O)CNC(=O)[C@H](CC(C)C)NC(=O)[C@H](CC(N)=O)NC(=O)[C@H](Cc1c[nH]cn1)NC(=O)[C@H](CCCC)NC(=O)[C@H](CC(C)C)NC(=O)[C@H](CCC(N)=O)NC(=O)[C@@H](NC(=O)[C@H](CCC(=O)O)NC(=O)[C@H](CO)NC(=O)[C@@H](NC(=O)[C@@H](N)CO)C(C)C)[C@@H](C)CC)C(=O)N[C@@H](CCC(=O)O)C(=O)N[C@@H](CCCNC(=N)N)C(=O)N[C@H](C(=O)N[C@H]1CCC(=O)NCCCC[C@@H](C(=O)N[C@@H](CC(C)C)C(=O)N[C@@H](CC(C)C)C(=O)N[C@@H](CCC(N)=O)C(=O)N[C@@H](CC(=O)O)C(=O)N[C@H](C(N)=O)C(C)C)NC(=O)[C@H](CCCNC(=N)N)NC(=O)[C@H](CC(C)C)NC(=O)[C@H](Cc2c[nH]c3ccccc23)NC1=O)C(C)C
B7: cyclo(Glu^22-Lys^26)-hPTH-(1-31)-NH2 (peptide)
peptide: SVSEIQLMHNLGKHLNSMERVEWLRKKLQDV-NH2
modifications: lactam 22-26; N-terminus assumed
SMILES: CC[C@H](C)[C@H](NC(=O)[C@H](CCC(=O)O)NC(=O)[C@H](CO)NC(=O)[C@@H](NC(=O)[C@@H](N)CO)C(C)C)C(=O)N[C@@H](CCC(N)=O)C(=O)N[C@@H](CC(C)C)C(=O)N[C@@H](CCSC)C(=O)N[C@@H](Cc1c[nH]cn1)C(=O)N[C@@H](CC(N)=O)C(=O)N[C@@H](CC(C)C)C(=O)NCC(=O)N[C@@H](CCCCN)C(=O)N[C@@H](Cc1c[nH]cn1)C(=O)N[C@@H](CC(C)C)C(=O)N[C@@H](CC(N)=O)C(=O)N[C@@H](CO)C(=O)N[C@@H](CCSC)C(=O)N[C@@H](CCC(=O)O)C(=O)N[C@@H](CCCNC(=N)N)C(=O)N[C@H](C(=O)N[C@H]1CCC(=O)NCCCC[C@@H](C(=O)N[C@@H](CCCCN)C(=O)N[C@@H](CC(C)C)C(=O)N[C@@H](CCC(N)=O)C(=O)N[C@@H](CC(=O)O)C(=O)N[C@H](C(N)=O)C(C)C)NC(=O)[C@H](CCCNC(=N)N)NC(=O)[C@H](CC(C)C)NC(=O)[C@H](Cc2c[nH]c3ccccc23)NC1=O)C(C)C

What was measured:
[1] = system: anesthetized female Sprague-Dawley rats; assay: Hypotensive effect, tail artery pressure in anaesthetized rats
Experimental: Female Sprague-Dawley rats (weighing over 290 g) were anaesthetized with intraperitoneally injected sodium pentobarbital (65 mg/kg body weight). Rectal temperature was monitored with a YS1402 thermistor (Yellow Springs Instrument Co., Inc. Yellow Springs, Ohio) and maintained between 36.0 and 38.5° C. throughout the experiment. Ear pinna temperature was also monitored using a YSi banjo thermistor. The tail artery was exposed to cannulated with a Jelco 25-gIV catheter (Johnson and Johnson Medical Inc., Arlington, Tex.) and connected to a Statham pressure transducer, the signals from which were recorded digitally with a Biopac Systems MP100 Monitor (Harvard Instruments, Saint Laurent, QC, Canada). For intravenous injection of PTH or one of its fragments, a femoral vein was also exposed. After surgery, the rat was allowed to stabilize for 8 min after which PTH or one of its fragments (dissolved in acidified saline containing 0.001 N HCl) was injected into the femoral vein or under the skin of the abdomen. Data were collected for 12 min after intravenous injection or for 22 min after subcutaneous injection.

PTH receptor = PTH receptor (rat (ROS 17/2 rat osteosarcoma cell …, UniProt P25961)); assay: cell-based or functional assay
[2] = intravenous, 0.8 nmol/100 g of body weight

Molecule | Adenylyl Cyclase (EC50) (PTH receptor) | also measured
CC[C@H](C)[C@H](NC(=O)[C@H](CCC(=O)O)NC(=O)[C@H](CO)NC(=O)[C@@H](NC(=O)[C@@H](N)CO)C(C)C)C(=O)N[C@@H](CCC(N)=O)C(=O)N[C@@H](CC(C)C)C(=O)N[C@@H](CCSC)C(=O)N[C@@H](Cc1c[nH]cn1)C(=O)N[C@@H](CC(N)=O)C(=O)N[C@@H](CC(C)C)C(=O)NCC(=O)N[C@@H](CCCCN)C(=O)N[C@@H](Cc1c[nH]cn1)C(=O)N[C@@H](CC(C)C)C(=O)N[C@@H](CC(N)=O)C(=O)N[C@@H](CO)C(=O)N[C@@H](CCSC)C(=O)N[C@@H](CCC(=O)O)C(=O)N[C@@H](CCCNC(=N)N)C(=O)N[C@H](C(=O)N[C@H]1CCC(=O)NCCCC[C@@H](C(=O)N[C@@H](CC(C)C)C(=O)N[C@@H](CC(C)C)C(=O)N[C@@H](CCC(N)=O)C(=O)N[C@@H](CC(=O)O)C(N)=O)NC(=O)[C@H](CCCNC(=N)N)NC(=O)[C@H](CC(C)C)NC(=O)[C@H](Cc2c[nH]c3ccccc23)NC1=O)C(C)C [compound 8, [Leu^27]cyclo(Glu^22Lys^26)-hPTH-(1-30)-NH2] (H-SVSEIQLMHNLGKHLNSMERVEWLRKLLQD-NH2; lactam 22-26) | – | total blood pressure drop versus other analogues ([1]; subcutaneously or intravenously, 0.8 nmol/100 g of body weight): not significantly different (p>0.05)
hPTH-(7-84) [reference compound] | – | hypotensive action, in words ([1]; intravenous injection): not significantly hypotensive; also recorded: did not significantly affect tail artery pressure; reduction of tail artery pressure [1, 2]: 3.28±1.0 mm Hg; time to maximum drop in tail artery pressure [1, 2]: 9.8 ± 2.0 min
B1 | 9 nM | –
B2 | 9 nM | –
B3 | 24 nM | –
B4 | 9 nM | –
B5 | 9 nM | –
B6 | 6 nM | –
SVSEIQLMHNLGKHLNSMERVEWLRKKLQDV-NH2 [hPTH-(1-31)-NH2] | 20 nM | –
B7 | 17 nM | –
